Measurements published in publication PMC6277972.

Target: P74-26 gp87 (Head Decoration Protein gp87 from Thermus phage P74-26) (Thermus bacteriophage P74-26)
Experiment: SEC-MALS

“P74-26 gp87 (Head Decoration Protein gp87 from Thermus phage P74-26) (natural protein)” gave a stoichiometry N of 3.
